# B1: ACAD9 (wild type, without a tag) (enzyme, human, UniProt Q9H845 38-621, looked up)
# chain: AFAKELFLGKIKKKEVFPFPEVSQDELNEINQFLGPVEKFFTEEVDSRKIDQEGKIPDETLEKLKSLGLFGLQVPEEYGGLGFSNTMYSRLGEIISMDGSITVTLAAHQAIGLKGIILAGTEEQKAKYLPKLASGEHIAAFCLTEPASGSDAASIRSRATLSEDKKHYILNGSKVWITNGGLANIFTVFAKTEVVDSDGSVKDKITAFIVERDFGGVTNGKPEDKLGIRGSNTCEVHFENTKIPVENILGEVGDGFKVAMNILNSGRFSMGSVVAGLLKRLIEMTAEYACTRKQFNKRLSEFGLIQEKFALMAQKAYVMESMTYLTAGMLDQPGFPDCSIEAAMVKVFSSEAAWQCVSEALQILGGLGYTRDYPYERILRDTRILLIFEGTNEILRMYIALTGLQHAGRILTTRIHELKQAKVSTVMDTVGRRLRDSLGRTVDLGLTGNHGVVHPSLADSANKFEENTYCFGRTVETLLLRFGKTIMEEQLVLKRVANILINLYGMTAVLSRASRSIRIGLRNHDHEVLLANTFCVEAYLQNLFSLSQLDKYAPENLDEQIKKVSQQILEKRAYICAHPLDRTC
# Biological target: B1
# Test: SEC
row,stoichiometry N,Binder
1,1 C-ECSIT chains per ACAD9 chain (one tetramer with two dimers),"His6-C-ECSIT (domain or fragment, human, UniProt Q9BQ95 249-431, looked up) LPKDSTGAADPPQPHIVGIQSPDQQAALARHNPARPVFVEGPFSLWLRNKCVYYHILRADLLPPEEREVEETPEEWNLYYPMQLDLEYVRSGWDNYEFDINEVEEGPVFAMCMAGAHDQATMAKWIQGLQETNPTLAQIPVVFRLAGSTRELQTSSAGLEEPPLPEDHQEEDDNLQRQQQGQS"

# Biological target: the molecule itself
# Test: SEC
row,Binder,stoichiometry N
1,B1,2
2,"ACAD9 Arg469Trp (enzyme, human, UniProt Q9H845 38-621, looked up) AFAKELFLGKIKKKEVFPFPEVSQDELNEINQFLGPVEKFFTEEVDSRKIDQEGKIPDETLEKLKSLGLFGLQVPEEYGGLGFSNTMYSRLGEIISMDGSITVTLAAHQAIGLKGIILAGTEEQKAKYLPKLASGEHIAAFCLTEPASGSDAASIRSRATLSEDKKHYILNGSKVWITNGGLANIFTVFAKTEVVDSDGSVKDKITAFIVERDFGGVTNGKPEDKLGIRGSNTCEVHFENTKIPVENILGEVGDGFKVAMNILNSGRFSMGSVVAGLLKRLIEMTAEYACTRKQFNKRLSEFGLIQEKFALMAQKAYVMESMTYLTAGMLDQPGFPDCSIEAAMVKVFSSEAAWQCVSEALQILGGLGYTRDYPYERILRDTRILLIFEGTNEILRMYIALTGLQHAGRILTTRIHELKQAKVSTVMDTVGWRLRDSLGRTVDLGLTGNHGVVHPSLADSANKFEENTYCFGRTVETLLLRFGKTIMEEQLVLKRVANILINLYGMTAVLSRASRSIRIGLRNHDHEVLLANTFCVEAYLQNLFSLSQLDKYAPENLDEQIKKVSQQILEKRAYICAHPLDRTC",2
3,"ACAD9 Arg532Trp (enzyme, human, UniProt Q9H845 38-621, looked up) AFAKELFLGKIKKKEVFPFPEVSQDELNEINQFLGPVEKFFTEEVDSRKIDQEGKIPDETLEKLKSLGLFGLQVPEEYGGLGFSNTMYSRLGEIISMDGSITVTLAAHQAIGLKGIILAGTEEQKAKYLPKLASGEHIAAFCLTEPASGSDAASIRSRATLSEDKKHYILNGSKVWITNGGLANIFTVFAKTEVVDSDGSVKDKITAFIVERDFGGVTNGKPEDKLGIRGSNTCEVHFENTKIPVENILGEVGDGFKVAMNILNSGRFSMGSVVAGLLKRLIEMTAEYACTRKQFNKRLSEFGLIQEKFALMAQKAYVMESMTYLTAGMLDQPGFPDCSIEAAMVKVFSSEAAWQCVSEALQILGGLGYTRDYPYERILRDTRILLIFEGTNEILRMYIALTGLQHAGRILTTRIHELKQAKVSTVMDTVGRRLRDSLGRTVDLGLTGNHGVVHPSLADSANKFEENTYCFGRTVETLLLRFGKTIMEEQLVLKWVANILINLYGMTAVLSRASRSIRIGLRNHDHEVLLANTFCVEAYLQNLFSLSQLDKYAPENLDEQIKKVSQQILEKRAYICAHPLDRTC",2
4,"ACAD9 Glu426Gln (enzyme, human, UniProt Q9H845 38-621, looked up) AFAKELFLGKIKKKEVFPFPEVSQDELNEINQFLGPVEKFFTEEVDSRKIDQEGKIPDETLEKLKSLGLFGLQVPEEYGGLGFSNTMYSRLGEIISMDGSITVTLAAHQAIGLKGIILAGTEEQKAKYLPKLASGEHIAAFCLTEPASGSDAASIRSRATLSEDKKHYILNGSKVWITNGGLANIFTVFAKTEVVDSDGSVKDKITAFIVERDFGGVTNGKPEDKLGIRGSNTCEVHFENTKIPVENILGEVGDGFKVAMNILNSGRFSMGSVVAGLLKRLIEMTAEYACTRKQFNKRLSEFGLIQEKFALMAQKAYVMESMTYLTAGMLDQPGFPDCSIEAAMVKVFSSEAAWQCVSEALQILGGLGYTRDYPYERILRDTRILLIFQGTNEILRMYIALTGLQHAGRILTTRIHELKQAKVSTVMDTVGRRLRDSLGRTVDLGLTGNHGVVHPSLADSANKFEENTYCFGRTVETLLLRFGKTIMEEQLVLKRVANILINLYGMTAVLSRASRSIRIGLRNHDHEVLLANTFCVEAYLQNLFSLSQLDKYAPENLDEQIKKVSQQILEKRAYICAHPLDRTC",2
5,"ACAD9-His6 (enzyme, human, UniProt Q9H845 38-621, looked up) AFAKELFLGKIKKKEVFPFPEVSQDELNEINQFLGPVEKFFTEEVDSRKIDQEGKIPDETLEKLKSLGLFGLQVPEEYGGLGFSNTMYSRLGEIISMDGSITVTLAAHQAIGLKGIILAGTEEQKAKYLPKLASGEHIAAFCLTEPASGSDAASIRSRATLSEDKKHYILNGSKVWITNGGLANIFTVFAKTEVVDSDGSVKDKITAFIVERDFGGVTNGKPEDKLGIRGSNTCEVHFENTKIPVENILGEVGDGFKVAMNILNSGRFSMGSVVAGLLKRLIEMTAEYACTRKQFNKRLSEFGLIQEKFALMAQKAYVMESMTYLTAGMLDQPGFPDCSIEAAMVKVFSSEAAWQCVSEALQILGGLGYTRDYPYERILRDTRILLIFEGTNEILRMYIALTGLQHAGRILTTRIHELKQAKVSTVMDTVGRRLRDSLGRTVDLGLTGNHGVVHPSLADSANKFEENTYCFGRTVETLLLRFGKTIMEEQLVLKRVANILINLYGMTAVLSRASRSIRIGLRNHDHEVLLANTFCVEAYLQNLFSLSQLDKYAPENLDEQIKKVSQQILEKRAYICAHPLDRTC",2
6,"ACAD9 Arg518His (enzyme, human, UniProt Q9H845 38-621, looked up) AFAKELFLGKIKKKEVFPFPEVSQDELNEINQFLGPVEKFFTEEVDSRKIDQEGKIPDETLEKLKSLGLFGLQVPEEYGGLGFSNTMYSRLGEIISMDGSITVTLAAHQAIGLKGIILAGTEEQKAKYLPKLASGEHIAAFCLTEPASGSDAASIRSRATLSEDKKHYILNGSKVWITNGGLANIFTVFAKTEVVDSDGSVKDKITAFIVERDFGGVTNGKPEDKLGIRGSNTCEVHFENTKIPVENILGEVGDGFKVAMNILNSGRFSMGSVVAGLLKRLIEMTAEYACTRKQFNKRLSEFGLIQEKFALMAQKAYVMESMTYLTAGMLDQPGFPDCSIEAAMVKVFSSEAAWQCVSEALQILGGLGYTRDYPYERILRDTRILLIFEGTNEILRMYIALTGLQHAGRILTTRIHELKQAKVSTVMDTVGRRLRDSLGRTVDLGLTGNHGVVHPSLADSANKFEENTYCFGRTVETLLLHFGKTIMEEQLVLKRVANILINLYGMTAVLSRASRSIRIGLRNHDHEVLLANTFCVEAYLQNLFSLSQLDKYAPENLDEQIKKVSQQILEKRAYICAHPLDRTC",2
7,"very long chain acyl-CoA dehydrogenase (VLCAD) (enzyme, human, UniProt P49748 41-655, looked up) AGGAAQLALDKSDSHPSDALTRKKPAKAESKSFAVGMFKGQLTTDQVFPYPSVLNEEQTQFLKELVEPVSRFFEEVNDPAKNDALEMVEETTWQGLKELGAFGLQVPSELGGVGLCNTQYARLVEIVGMHDLGVGITLGAHQSIGFKGILLFGTKAQKEKYLPKLASGETVAAFCLTEPSSGSDAASIRTSAVPSPCGKYYTLNGSKLWISNGGLADIFTVFAKTPVTDPATGAVKEKITAFVVERGFGGITHGPPEKKMGIKASNTAEVFFDGVRVPSENVLGEVGSGFKVAMHILNNGRFGMAAALAGTMRGIIAKAVDHATNRTQFGEKIHNFGLIQEKLARMVMLQYVTESMAYMVSANMDQGATDFQIEAAISKIFGSEAAWKVTDECIQIMGGMGFMKEPGVERVLRDLRIFRIFEGTNDILRLFVALQGCMDKGKELSGLGSALKNPFGNAGLLLGEAGKQLRRRAGLGSGLSLSGLVHPELSRSGELAVRALEQFATVVEAKLIKHKKGIVNEQFLLQRLADGAIDLYAMVVVLSRASRSLSEGHPTAQHEKMLCDTWCIEAAARIREGMAALQSDPWQQELYRNFKSISKALVERGGVVTSNPLGF",2
8,"Loop12-ACAD9 (enzyme, human) AFAKELFLGKIKKKEVFPFPEVSQDELNEINQFLGPVEKFFTEEVDSRKIDQEGKIPDETLEKLKSLGLFGLQVPEEYGGLGFSNTMYSRLGEIISMDGSITVTLAAHQAIGLKGIILAGTEEQKAKYLPKLASGEHIAAFCLTEPASGSDAASIRSRATLSEDKKHYILNGSKVWITNGGLANIFTVFAKTEVVDSDGSVKDKITAFIVERDFGGVTNGKPEDKLGIRGSNTCEVHFENTKIPVENILGEVGDGFKVAMNILNSGRFSMGSVVAGLLKRLIEMTAEYACTRKQFNKRLSEFGLIQEKFALMAQKAYVMESMTYLTAGMLDQPGFPDCSIEAAMVKVFSSEAAWQCVSEALQILGGLGYTRDYPYERILRDTRILLIFEGTNEILRMYIALTGLQHAGRILTTGGSGGSGGSGGSDLGLTGNHGVVHPSLADSANKFEENTYCFGRTVETLLLRFGKTIMEEQLVLKRVANILINLYGMTAVLSRASRSIRIGLRNHDHEVLLANTFCVEAYLQNLFSLSQLDKYAPENLDEQIKKVSQQILEKRAYICAHPLDRTC",2
9,"His6-C-ECSIT (domain or fragment, human, UniProt Q9BQ95 249-431, looked up) LPKDSTGAADPPQPHIVGIQSPDQQAALARHNPARPVFVEGPFSLWLRNKCVYYHILRADLLPPEEREVEETPEEWNLYYPMQLDLEYVRSGWDNYEFDINEVEEGPVFAMCMAGAHDQATMAKWIQGLQETNPTLAQIPVVFRLAGSTRELQTSSAGLEEPPLPEDHQEEDDNLQRQQQGQS",4

# Source: publication doi:10.1101/2021.01.07.425795 (bioRxiv, 2021)
